Experimental data published in paper PMC3716610.

Tests used:
Test in all cases: EMSA
Conditions in all cases: 25 mM Tris-HCl pH 7.5, 50 mM KCl, 0.5 mM MgCl2, 100 µg/ml BSA, 1 mM DTT, 10% glycerol; 0.1 µM DNA; 37°C, 30 min; 1% agarose gel, ethidium bromide
[1] = test system: MBP-3B4ct (C-terminal DNMT3B4) (human)
[2] = test system: MBP-3B2ct (C-terminal DNMT3B2);GST-3B3ct (human;human)
[3] = test system: MBP-3B2ct (C-terminal DNMT3B2);GST-3B2ct (human;human)
[4] = test system: MBP-3B3ct (C-terminal DNMT3B3) (human)
[5] = test system: MBP-3B2ct (C-terminal DNMT3B2) (human)

Q: How did the Kd [1] turn out when 420 bp DNMT3B PWWP fragment was run?
A: 2420 nM

Q: And the Kd [2]?
A: 1500 nM

Q: And the Kd [3]?
A: 400 nM

Q: What about the Kd [4] of the same substance?
A: 160 nM

Q: What about the Kd [5] of the same substance?
A: 220 nM
